From article PMC10411777, “Analytical sameness methodology for the evaluation of structural, physicochemical, and biological characteristics of Armlupeg: A pegfilgrastim biosimilar case study” (PLOS ONE, 2023) come the findings set out here.

This assay has as its target G-CSF receptor (UniProt Q99062 25-836). The assay can be described thus: SPR; BIAcore T200; G-CSF receptor immobilised on a CM5 chip at 2000 RU by amine coupling; pegfilgrastim injected at seven concentrations from 0.08 to 5 nM; 1:1 binding model; KD from kinetics; triplicates for each batch. To be noted: both partners purified.

Chain of G-CSF receptor (Q99062 25-836): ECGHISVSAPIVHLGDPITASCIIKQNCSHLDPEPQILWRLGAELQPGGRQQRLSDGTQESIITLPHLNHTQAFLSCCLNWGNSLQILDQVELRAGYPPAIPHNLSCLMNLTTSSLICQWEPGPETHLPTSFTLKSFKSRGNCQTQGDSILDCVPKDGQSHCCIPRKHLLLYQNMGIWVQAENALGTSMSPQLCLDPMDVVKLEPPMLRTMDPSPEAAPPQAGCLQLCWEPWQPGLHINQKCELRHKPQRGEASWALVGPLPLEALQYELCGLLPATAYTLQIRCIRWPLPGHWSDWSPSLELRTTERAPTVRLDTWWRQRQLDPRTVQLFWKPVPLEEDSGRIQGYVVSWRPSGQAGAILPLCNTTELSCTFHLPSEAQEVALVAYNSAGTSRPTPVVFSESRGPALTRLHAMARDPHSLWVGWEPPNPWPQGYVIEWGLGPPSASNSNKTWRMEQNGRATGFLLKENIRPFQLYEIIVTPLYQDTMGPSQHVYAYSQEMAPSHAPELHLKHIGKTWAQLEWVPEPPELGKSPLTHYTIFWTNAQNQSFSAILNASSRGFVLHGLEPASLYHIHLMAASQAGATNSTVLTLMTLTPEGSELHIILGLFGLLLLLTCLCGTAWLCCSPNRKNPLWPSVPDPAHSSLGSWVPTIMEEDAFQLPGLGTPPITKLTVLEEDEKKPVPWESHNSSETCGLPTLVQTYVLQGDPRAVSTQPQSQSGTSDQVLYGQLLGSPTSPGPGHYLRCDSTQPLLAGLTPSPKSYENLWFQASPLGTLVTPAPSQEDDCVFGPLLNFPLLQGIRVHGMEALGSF

B1: Armlupeg (Lupin’s Pegfilgrastim) (ligand, human)
chain: MTPLGPASSLPQSFLLKCLEQVRKIQGDGAALQEKLCATYKLCHPEELVLLGHSLGIPWAPLSSCPSQALQLAGCLSQLHSGLFLYQGLLQALEGISPELGPTLDTLQLDVADFATTIWQQMEELGMAPALQPTQGAMPAFASAFQRRAGGVLVASHLQSFLEVSYRVLRHLAQP
modifications: 20 kDa monomethoxy polyethylene glycol (PEG) covalently bound to the N-terminal methionine residue
notes: N-terminal methionine residue of filgrastim, named in words; it carries the PEG; Filgrastim: recombinant human granulocyte colony-stimulating factor (G-CSF), 175 amino acids with the N-terminal methionine; 18 lots were used for SPR; also called proposed biosimilar; source: Armlupeg drug product lots (Lupin Limited)
B1 yielded a Kd of 51.2 to 118 pM.
